Data published in the RNAGym collection of RNA variant scans (doi:10.1073/pnas.2313332121).
Variants at the floor of the assay were thinned out.

B1: TPR 5TU (parent)
chain: GGAUCUUCUCGAUCUAACAAAAAAGACAAAUCUGCCACAAAGCUUGAGAGCAUCUUCGGAUGCAGAGGCGGCAGCCUUCGGUGGCGCGAUAGCGCCAACGUUCUCAACUAUGACACGCAAAACGCGUGCUCCGUUGAAUGGAGUUUAUCAUG

Variants of: B1
Experiment: polymerase ribozyme fitness, log enrichment relative to wild type (log ratio); higher = more active; in vitro selection for triplet polymerase activity
Outline: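 Mutant libraries of each subunit of a heterodimeric triplet polymerase ribozyme were built by PCR and transcribed. Each library went through one round of in vitro selection in triplicate: annealing with biotinylated primer, partner subunit and triplets, frozen incubation at −7 °C, gel excision of extended constructs, streptavidin-bead capture and RT-PCR. Input and output libraries were Illumina-sequenced; only genotypes with ≥10 input reads and ≥1 read per output were kept. Fitness is log2(genotype enrichment/wild-type enrichment), using inverse-variance-weighted replicate averages.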

Compared with GGAUCUUCUCGAUCUAACAAAAAAGACAAAUCUGCCACAAAGCUUGAUAGCAUCUUCGGAUGCAGAGGCGGCAGCCUUCGGUGGCGCGAUAGCGCCAACGUUCUCAACUAUGACACGCAAAACGCGUGCUCCGUUGAAUGGAGUUUAUGAUG [G48U C149G], GGAUCUUCUCGAUCUAACAAAAAAGACAAAUCUGCCACAAAGCUUGAUAGCAUCUUCGGAUGCAGAGGCGGCAGCCUUCGGUGUCGCGAUAGCGCCAACGUUCUCAACUAUGACACGCAAAACGCGUGCUCCGUUGAAUGGAGUUUAUCAUG [G48U G84U] is higher in “polymerase ribozyme fitness (log ratio)” value: at most -4.2 for the first, -2.01 for the second.

Going from GGAUCUUCUCGAUCUAACAAAAAAGACAAAUCUGCCACAAAGCUUGAUAGCAUCUUGGGAUGCAGAGGCGGCAGCCUUCGGUGGCGCGAUAGUGCCAACGUUCUCAACUAUGACACGCAAAACGCGUGCUCCGUUAAAUGGAGUUGAUCAUG [G48U C57G C93U G136A U146G] to GGAUCUUCUCGAUCUAACAAAAAAGACAAAUCUGCCACAAAGCUUGACAGCAUCAUCGGAUGCAGAGGCGGCAGCCUUCGGUGGCGCGAUAGCGCCAACGUUGUCAACUAUGACACGCAAAACGCGUGCUCCGUUGAAUGGAGUUUAUCAUG [G48C U55A C103G], the “polymerase ribozyme fitness (log ratio)” value rises from -2.43 to -0.533.

First: GGAUCUUCUCGAUCUAACAAAAAAGACAAAUCUGCCACAAAGCUUGAUAGCAUCUUCGGAUGCAGAGGCGGCAGCCUUCGGUGGCGCGAUAGCGCCAACGUUCUCAACUAUGACACGGAAAACGCGUGCUCCGUUGAAUGGAGUUUAUCAUG [G48U C118G]
Second: GGAUCUUCUCGAUCUAACAAAAAAGACAAAUCUGCCACAAAGCUUGAUACCAUCUUCGGAUGCAGAGGCGGCAGCCUUCGGUGGGGCGAUAGCGCCAUUGUUCUCAACUAUGACACGCAAAACGCGUGCUCCGUUGAAUGGAGUUUAUUAUG [G48U G50C C85G A98U C99U C149U]
The “polymerase ribozyme fitness (log ratio)” value of the first is higher: -0.339 for the first, at most -4.2 for the second.

Going from GGAUCUUCUCGAUCUAACAAAAAAGACAAAUCUGCCACAAAGCUUGAUAGCAUCUUCGGAUGCAGAGGCGGCAGCCUUCGGUGGCGCGAUAGCGCAAACGUUCUCAACUAUGACACGCAAAACGCGUGCUCCGUUGAAUGGAGUUUAUCAUG [G48U C96A] to GGAUCUUCUCGAUCUAACAAAAAAGACAAAUCUGCCACAAAGCUUGAUAGCAUCUUCGGAUGCAGAGGCGGCAGCCUUCGGUGGCGCGAUAGCGCGAACGUUCUCAACUAUGACACGCAAAACGCGUGCUCCGUUGAAUGGAGUUUAUCAUG [G48U C96G], the “polymerase ribozyme fitness (log ratio)” value falls from -0.685 to -1.13.

First: GGAUCUUCUCGAUCUAACAAAAAAGACAAAUCUGCCACAAAGCUUGACAGCAGCUUCGGAUGCAGAGGCGGCAGCCUUCGGUGGCGCGAUAGCGCCAACGUUCUCAACUAUGACACGCAAAACGCGUGCUCCGUUGAAUGGAGUUUAUCAUG [G48C U53G]
Second: GGAUCUUCUCGAUCUAACAAAAAAGACAAAUCUGCCACAAAGCUUGAUAGCAUCUUCGGAUGCAGAGGCGGCAGCCUUCGGUGGCGCGAUAGCGCCAACGUUCUCAACUAUGACACGCAAAACGCGUGCUCCGUUGAAUGGUGUUUAUCAUG [G48U A142U]
The “polymerase ribozyme fitness (log ratio)” value of the first is lower: -3.59 for the first, -2.92 for the second.

First: GGAUCUUCUCGAUCUAACAAAAAAGACAAAUCUGCCACAAAGCUUGACAGCAUCUUCGGAUGCAGAGGCGGCAGCCUUCGGGGGCGCGAUAGCGCCAACGUUCUCAACUAUGACACGCAAAACGCGUCCUCCGUAGAAUGGAGUUUAUCAUG [G48C U82G G128C U135A]
Second: GGAUCUUCUCGAUCUAACAAAAAAGACAAAUCUGCCACAAAGCUUGACAGCAUCAUCGGAUGCAGAGGCGGCAGCCUUCGGUGGCGCGAUAGCGCCAACGUUCUCAACUAUGACACGCAAAACGCGUGCUCCGUUGAAUGGAGUUUAUCAUG [G48C U55A]
The “polymerase ribozyme fitness (log ratio)” value of the first is lower: -3.96 for the first, -0.498 for the second.

GGAUCUUCUCGAUCUAACAAAAAAGACAAAUCUGCCACAAAGCUUGAUAGCAUCUUCGGAUGCAGAGGCGGCAGCCUUCGGUAGCGCGAUAGCGCCAACGUUCUCAACUAUGACACGCAAAACGCGUGCUCCGAUAAAUGGAGUUUAUCAUG [G48U G83A U134A G136A] and GGAUCUUCUCGAUCUAACAAAAAAGACAAAUCUGCCACAAAGCUUGACAGCAUCUCCGGAUGCAGAGGCGGCGGCCUUCGGUGGCGCGAUAGCGCCAACGUUCUCAACUAUGACACGAAAAACGCGUGCUCCGUUGAAUGGAGUUUAUCAUG [G48C U56C A73G C118A] are within 0.2 log units of each other in “polymerase ribozyme fitness (log ratio)” value: -2.44 for the first, -2.46 for the second.

Compared with GGAUCUUCUCGAUCUAACAAAAAAGACAAAUCUGCCACAAAGCUUGAUAGCAUCUUCGGAUGCAGAGGCGGCAGCCUUCGGUGGCGCGAUAGCGCCAACGUUCUCAACUAUGACACGCAAAACGCGUGCUCCGUUGAAUGGAGUUUAUCAUG [G48U], GGAUCUUCUCGAUCUAACAAAAAAGACAAAUCUGCCACAAAGCUUGAUAGCAUCUUCGGAUGCAGAGGCGGCAGCCUUCGGUGGUGCGAUAGCGCCAACGUUCUCAACUAUGACACGCAAAACGCGUGCUCCGUUGAAUUGAGUUUAUCAUG [G48U C85U G140U] is lower in “polymerase ribozyme fitness (log ratio)” value: 0.247 for the first, at most -4.2 for the second.

Going from GGAUCUUCUCGAUCUAACAAAAAAGACAAAUCUGCCACAAAGCUUGAUAGCAACUUCGGAUGCAGAGGCGGCAGCCUUCGGUGGUGCGAUAGCGCCAACGUUCUCAACUAUGACACGCAAAACGCGUGCUCCGUUGAAUGGAGUUUAUCAUG [G48U U53A C85U] to GGAUCUUCUCGAUCUAACAAAAAAGACAAAUCUGCCACAAAGCUUGAUAGCAUCUUCGGAUGCAGAGGCGGCAGCCUUCGGUGGCGCGAUAGCGCCAACGUUCUCGACUAUGACACGCAAAACGCGUGCUCCGUUGAAUGGAGUUUAUCAUG [G48U A106G], the “polymerase ribozyme fitness (log ratio)” value rises from -1.94 to -1.48.

In the case of GGAUCUUCUCGAUCUAACAAAAAAGACAAAUCUGCCACAAAGCUUGAUAGCAUCUUCGGAUGCAGAGGCGGCAGCCUUCGGGGGCGCGAUAGCGCGAACGUUCUCAACUAUGACACGCAAAACGCGUGCUCCGUUGAAUGGAGUUUAUCAUG [G48U U82G C96G], the “polymerase ribozyme fitness (log ratio)” value is reported as -1.48.
